According to patent US20250034266A1 (ZAI LAB SHANGHAI, published 2025):
Numbering of substitutions follows the chain as printed. Numbers in names are those of the source. Where two headings read alike, the source gives them in different places. Each block holds one binder with its values, some of them ahead of it.

Columns and labels:
human CCR8 [1] = biological target: T1, human CCR8 (human, UniProt P51685 1-355); experiment: cell-based or functional assay
T1 sequence (P51685 whole entry): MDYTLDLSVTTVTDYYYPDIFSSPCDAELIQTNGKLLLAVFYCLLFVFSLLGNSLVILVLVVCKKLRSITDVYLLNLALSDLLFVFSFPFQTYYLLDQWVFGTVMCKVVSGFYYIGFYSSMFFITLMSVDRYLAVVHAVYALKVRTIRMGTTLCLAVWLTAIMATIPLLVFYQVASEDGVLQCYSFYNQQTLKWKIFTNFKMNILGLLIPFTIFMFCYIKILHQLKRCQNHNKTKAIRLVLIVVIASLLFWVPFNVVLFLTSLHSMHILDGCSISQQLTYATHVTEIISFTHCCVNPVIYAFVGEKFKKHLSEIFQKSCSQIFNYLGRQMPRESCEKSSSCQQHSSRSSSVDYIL

human CCR8 [2] = biological target: T1, human CCR8; experiment: FACS, competition with AF647-human CCL1 on CHO-K1-human CCR8 cells
Procedure: (§1) Antibodies were prepared with 3-fold serial dilution ranging from 200 nM to 0.01 nM in FACS buffer. Then, cells were washed by FACS buffer for three times after incubation. […] FlowJo software was used for analysis. Data was plotted as the logarithm of antibody concentration versus mean fluorescence signals. IC₅₀ values were determined in GraphPad Prism 8 (GraphPad Software) using a log(agonist) vs. response-Variable slope (4 parameters) curve fit.

human CCR8 [3] = biological target: T1, human CCR8; experiment: as above; remark: listed apart in the source
Procedure: Blocking curves were generated to rank the blocking activities of PTM sites removed antibodies. Briefly, a total of 5×10⁴ CHO-K1-human CCR8 cells for each well were seeded in 96-well plate. Cells were incubated by series diluted purified hybridoma antibodies and 4 nM AF647 labeled human CCL1 (Almac, #CAF-07) for 1 hour at 4° C. Antibodies were prepared with 3-fold serial dilution ranging from 100 nM to 0.0051 nM in FACS buffer. Then, cells were washed by FACS buffer for three times after incubation. […] FlowJo software was used for analysis. Data was plotted as the logarithm of antibody concentration versus mean fluorescence signals. IC₅₀ values were determined in GraphPad Prism 8 (GraphPad Software) using a log(agonist) vs. response-Variable slope (4 parameters) curve fit.

cynomolgus CCR8 [4] = biological target: T2, cynomolgus CCR8 (cynomolgus, UniProt G7NYJ2 1-355); experiment: FACS on HEK293-cynomolgus CCR8 cells
T2 construct: whole, on cells
T2 sequence (G7NYJ2 entry or part of it): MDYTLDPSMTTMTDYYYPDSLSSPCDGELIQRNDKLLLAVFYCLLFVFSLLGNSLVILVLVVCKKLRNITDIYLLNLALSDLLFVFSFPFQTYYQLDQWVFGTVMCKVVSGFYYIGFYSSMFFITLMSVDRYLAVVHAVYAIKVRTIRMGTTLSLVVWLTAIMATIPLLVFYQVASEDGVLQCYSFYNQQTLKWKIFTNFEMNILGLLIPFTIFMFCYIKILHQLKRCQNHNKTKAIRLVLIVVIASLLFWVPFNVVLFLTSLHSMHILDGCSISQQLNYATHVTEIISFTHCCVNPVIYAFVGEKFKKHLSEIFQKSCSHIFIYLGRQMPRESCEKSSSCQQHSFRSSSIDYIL
Procedure: (§2) Binding affinities of NG site removed antibodies were determined on human CCR8 and cynomolgus CCR8 overexpression cells. Briefly, CFSE labeled HEK293-human CCR8 cells or CFSE labeled HEK293-cynomolgus CCR8 cells were mixed with HEK293 cells. The mixed ratio was 1:1. A total of 5×10⁴ mixed cells for each well were seeded in 96-well plates and washed by FACS buffer (DPBS containing 1% FBS) once. Cells were incubated by serial diluted purified hybridoma antibodies for 1 hour at 4° C. Antibodies were prepared with 3-fold serial dilution ranging from 100 nM to 0.0017 nM or from 25.3165 nM to 0.0004 nM in FACS buffer. […] After primary antibody incubation, cells were washed by FACS buffer for three times. Then, cells were stained with secondary antibody (Alexa Flu647-conj gated rabbit anti-mouse IgG, Jackson ImmunoResearch, #315606046) at 1:600 dilution in FACS buffer, incubated for 0.5 hour at 4° C. […] FlowJo software was used for analysis. Data was plotted as the logarithm of antibody concentration versus mean fluorescence signals. EC₅₀ values were calculated in GraphPad Prism 8 (GraphPad Software) using a log (agonist) vs. response-Variable slope (4 parameters) curve fit.

human CCR8 [5] = biological target: T1, human CCR8; experiment: FACS, competition with AF647-human CCL1 on HEK293-human CCR8 cells
Procedure: as §1

human CCR8 [6] = biological target: T1, human CCR8; experiment: FACS on HEK293-human CCR8 cells
Procedure: as §2

human CCR8 [7] = biological target: T1, human CCR8; experiment: FACS of purified scFv on CHO-K1-human CCR8 cells
human CCR8 [8] = biological target: T3, human CCR8 (human, UniProt P51685 1-355); experiment: cell-based or functional assay; remark: listed apart in the source
T3 sequence (P51685 whole entry): as the sequence (P51685 whole entry) above

human CCR8 [9] = biological target: T3, human CCR8; experiment: cell-based or functional assay; remark: listed apart in the source
human CCR8 [10] = biological target: T1, human CCR8; experiment: cell-based or functional assay; remark: listed apart in the source
cynomolgus CCR8 [11] = biological target: T2, cynomolgus CCR8; experiment: FACS on HEK293-cynomolgus CCR8 cells; remark: listed apart in the source
Procedure: (§3) A total of 5×10⁴ cells for each well were seeded in 96-well plates and washed with FACS buffer (DPBD containing 1.5% FBS) for once. Antibodies were prepared with 3-fold serial dilution ranging from 100 nM to 0.0017 nM in FACS buffer. Cells were incubated with 50 μL of diluted antibodies at 4° C. for 1 hour. […] After primary antibody incubation, cells were washed for 3 times by FACS buffer. Then, cells were stained by Alexa Flu647 labeled anti-human IgG secondary antibody (Jackson ImmunoResearch, #109606170) or Alexa Flu647 labeled anti-mouse IgG secondary antibody (Jackson ImmunoResearch, #115605072) at 1:600 dilution in FACS buffer for 0.5 hour at 4° C. After washed for 3 times, Flow cytometry was performed to measure the binding.

human CCR8 [12] = biological target: T1, human CCR8; experiment: FACS on HEK293-human CCR8 cells; remark: listed apart in the source
Procedure: as §3

human CCR8 [13] = biological target: T1, human CCR8; experiment: FACS, competition with AF647-human CCL1 on CHO-K1-human CCR8 cells; remark: listed apart in the source
human CCR8 [14] = biological target: T1, human CCR8; experiment: as above; remark: listed apart in the source
human CCR8 [15] = biological target: T1, human CCR8; experiment: FACS on HEK293-human CCR8 cells; remark: listed apart in the source
cynomolgus CCR8 [16] = biological target: T2, cynomolgus CCR8; experiment: FACS on ExpiCHO-S-cynomolgus CCR8 cells

GeoMean AF647 (RL1-H) of CHO-K1-human CCR8 / GeoMean AF647 (RL1-H) in H12(NC) (human CCR8 [7]): 6
B3: VH-PH7-P2H12 (scFv)
scFv: EVQLVESGGGLVQPGGSLKLSCAASGFTFNTYAMNWVRQAPGKGLEWVGRIRSKSNFYATAYAASVKGRFTISRDDSKNTAYLQMNSLKTEDTAVYYCTRGRDYGSSYAMDYWGQGTLVTVSSGGGGSGGGGSGGGGSDIVMTQSPLSLPVTPGEPASISCRSSKSLLHSNANTYLYWFLQKPGQSPQLLIYRMSNLASGVPDRFSGSGSGTDFTLKISRVEAEDVGVYYCMQHLEYPLTFGGGTKVELK
notes: also called VH-PH7-P2H12(S41P)

GeoMean AF647 (RL1-H) of CHO-K1-human CCR8 / GeoMean AF647 (RL1-H) in H12(NC) (human CCR8 [7]): 2.9
B4: VL-PH5-P3E4 (scFv)
scFv: B3 scFv with P41S, E236R

GeoMean AF647 (RL1-H) of CHO-K1-human CCR8 / GeoMean AF647 (RL1-H) in H12(NC) (human CCR8 [7]): 4.6
B5: VH-PH5-P2B6(LCDR3) (scFv)
scFv: B3 scFv with P41S, E236K

GeoMean AF647 (RL1-H) of CHO-K1-human CCR8 / GeoMean AF647 (RL1-H) in H12(NC) (human CCR8 [7]): 10.8
B6: VH-PH5-P9E9 (scFv)
scFv: B3 scFv with P41S, R102K, D103E

GeoMean AF647 (RL1-H) of CHO-K1-human CCR8 / GeoMean AF647 (RL1-H) in H12(NC) (human CCR8 [7]): 3.2
B7: VL-PH5-P5D9 (scFv)
scFv: B3 scFv with P41S, E236S

GeoMean AF647 (RL1-H) of CHO-K1-human CCR8 / GeoMean AF647 (RL1-H) in H12(NC) (human CCR8 [7]): 3.6
B8: VH-PH5-P3E3 (scFv)
scFv: B3 scFv with P41S, D103E, S107A

GeoMean AF647 (RL1-H) of CHO-K1-human CCR8 / GeoMean AF647 (RL1-H) in H12(NC) (human CCR8 [7]): 7.1
B9: VH-PH5-P5F7 (scFv)
scFv: B3 scFv with P41S, D103E, S106R

GeoMean AF647 (RL1-H) of CHO-K1-human CCR8 / GeoMean AF647 (RL1-H) in H12(NC) (human CCR8 [7]): 10.4
B10: VH-PH5-P7B9 (scFv)
scFv: B3 scFv with P41S, D103E

The remaining lines, values behind:

B1: 149F2C10 (antibody, V domains shown)
VH: EVQLVESGGGLVQPKGSLKLSCAASGFTFNTYAMNWVRQAPGKGLEWVARIRSKSNFYATYYADSVKDRFTISRDDSQDMLYLQMNILKTEDTAIYYCVRGRDYGSSYAMDYWGQGTSVTVSS
VL: DIVMTQAAPSVPVTPGESVSISCRSSKSLLHSNGNTYLYWFLQRPGQSPQLLIYRMSNLASGVPDRFSGSGSGTAFTLRISRVEAEDVGVYYCMQHLEYPLTFGAGTKLELK
notes: purified murine hybridoma antibody
IC50, inhibition of CCL1 induced β-Arrestin recruitment (human CCR8 [1]): 0.61 nM
Max Inhibition (%), CCL1 induced β-Arrestin recruitment (human CCR8 [1]): 32%
IC50 (human CCR8 [2]): 0.917 nM
Max Inhibition (%) (human CCR8 [2]): 98%
IC50 (human CCR8 [3]): 0.97 nM
Max Inhibition (%) (human CCR8 [3]): 79.4%
EC50 (cynomolgus CCR8 [4]): 0.145 nM
Max MFI (cynomolgus CCR8 [4]): 3440 MFI
IC50 (human CCR8 [5]): 0.733 nM
Max Inhibition (%) (human CCR8 [5]): 96.4%
EC50 (human CCR8 [6]): 0.173 nM
Max MFI (human CCR8 [6]): 1930 MFI

B2: 149-9 scFv (WT) (scFv)
scFv: B3 scFv with P41S
notes: VH-VL format with (G4S)3 linker
GeoMean AF647 (RL1-H) of CHO-K1-human CCR8 / GeoMean AF647 (RL1-H) in H12(NC) (human CCR8 [7]): 2.2

B11: Hu149-12G1 (antibody, human IgG1)
heavy: not shown
VL: DIVMTQSPLSLPVTPGEPASISCRSSKSLLHSNANTYLYWFLQKPGQSPQLLIYRMSNLASGVPDRFSGSGSGTDFTLKISRVEAEDVGVYYCMQHLEYPLTFGGGTKVELK
EC50, ADCC with human PBMCs, target CHO-K1-human CCR8 cells (human CCR8 [8]): 0.0113 nM
Max specific lysis (%), ADCC with human PBMCs, target CHO-K1-human CCR8 cells (human CCR8 [8]): 36.4%
EC50, ADCC reporter, F variant CD16a/NFAT-Jurkat, target CHO-K1-human CCR8 cells (human CCR8 [9]): 0.0598 nM
EC50, ADCC reporter, F variant CD16a/NFAT-Jurkat, target HuT78 cells (human CCR8 [9]): 0.744 nM
EC50, ADCC reporter, V variant CD16a/NFAT-Jurkat, target CHO-K1-human CCR8 cells (human CCR8 [9]): 0.043 nM
EC50, ADCC reporter, V variant CD16a/NFAT-Jurkat, target HuT78 cells (human CCR8 [9]): 0.495 nM
Max (RLU), ADCC reporter, F variant CD16a/NFAT-Jurkat, target CHO-K1-human CCR8 cells (human CCR8 [9]): 4.96e+06 RLU
Max (RLU), ADCC reporter, F variant CD16a/NFAT-Jurkat, target HuT78 cells (human CCR8 [9]): 5.28e+06 RLU
Max (RLU), ADCC reporter, V variant CD16a/NFAT-Jurkat, target CHO-K1-human CCR8 cells (human CCR8 [9]): 2.28e+06 RLU
Max (RLU), ADCC reporter, V variant CD16a/NFAT-Jurkat, target HuT78 cells (human CCR8 [9]): 4.19e+06 RLU

B12: Hu149-4 (antibody, human IgG1, V domains shown)
VH: EVQLVESGGGLVQPGGSLKLSCAASGFTFNTYAMNWVRQASGKGLEWVGRIRSKSNFYATYYAASVKGRFTISRDDSKNTAYLQMNSLKTEDTAVYYCTRGRDYGSSYAMDYWGQGTLVTVSS
VL: B11 VL
notes: humanized, human IgG1; also called Hu149-4 HuIgG1
EC50, ADCC with human PBMC (human CCR8 [10]): 0.002 nM
Max specific lysis (%), ADCC with human PBMC (human CCR8 [10]): 8.76%
EC50 (cynomolgus CCR8 [11]): 0.081 nM
Max MFI (cynomolgus CCR8 [11]): 26500 MFI
EC50 (human CCR8 [12]): 0.0518 nM
Max MFI (human CCR8 [12]): 7470 MFI
IC50 (human CCR8 [13]): 0.137 nM
Max Inhibition (%) (human CCR8 [13]): 99.5%

B13: CM348 (antibody, V domains shown)
VH: QVQLVETGGGLVRPGNSLKLSCVTSGFSFSNYRMHWLRQPPGKRLEWIAVITVKSDNYGANYAESVKGRFTISRDDSKSSVYLQMNRLREEDTATYYCSSLGRVAYWGQGTLVTVSA
VL: DIVMTQSQKFMFTSVGDRVSVTCKASQNVDTNVVWYQQKPGQSPKALIYSASSRYSGVPDRFTGSGSGTDFTLTISNVQSEDLAEYFCQQHNSFPLTFGAGTKLELI
notes: CM348 is not defined in words; also called CM348 HuIgG1; parental antibody CM348
IC50 (human CCR8 [14]): 0.17 nM
Max Inhibition (%) (human CCR8 [14]): 96.4%
EC50, ADCC with human PBMC (human CCR8 [10]): 0.41 nM
Max specific lysis (%), ADCC with human PBMC (human CCR8 [10]): 13.1%
EC50 (human CCR8 [15]): 0.091 nM
Max MFI (human CCR8 [15]): 5050 MFI
EC50 (cynomolgus CCR8 [16]): 65.3 nM
Max MFI (cynomolgus CCR8 [16]): 238 MFI

B14: 204A2G12 (antibody, V domains shown)
VH: DVQLQESGPGLVKPSQSLSLTCSVTGYSITSGYYWNWIRQFPGNKLEWMGYISYDGTNNYNPSLKNRISITRDTSKNQFFLKLTSVTTEDTATYYCARQVGLRRAWFAYWGQGTLVTVSA
VL: DIQMTQSSSFLSVSLGGRVTITCKASDHINYWLAWYQQKPGNAPRLLISGATSLETGVPSRFSGSGSGKDYTLTITSLQNEDVATYYCHQYWSTPTFGSGTKLEIK
notes: as for B1
IC50, inhibition of CCL1 induced β-Arrestin recruitment (human CCR8 [1]): 1.7 nM
Max Inhibition (%), CCL1 induced β-Arrestin recruitment (human CCR8 [1]): 30.9%
IC50 (human CCR8 [2]): 2.73 nM
Max Inhibition (%) (human CCR8 [2]): 95%
IC50 (human CCR8 [5]): 1.64 nM
Max Inhibition (%) (human CCR8 [5]): 87.6%
